T1: human amylin receptor (human, UniProt P30988 25-474; O60896 24-148, limits assumed)
T1 construct: whole, on cells; Used as cell membranes prepared from the Amylin 3(a)/CRE-luc BHK cells (Assay V); also called hAmylin-R; hAmylinR
T1 sequence (looked up) 1: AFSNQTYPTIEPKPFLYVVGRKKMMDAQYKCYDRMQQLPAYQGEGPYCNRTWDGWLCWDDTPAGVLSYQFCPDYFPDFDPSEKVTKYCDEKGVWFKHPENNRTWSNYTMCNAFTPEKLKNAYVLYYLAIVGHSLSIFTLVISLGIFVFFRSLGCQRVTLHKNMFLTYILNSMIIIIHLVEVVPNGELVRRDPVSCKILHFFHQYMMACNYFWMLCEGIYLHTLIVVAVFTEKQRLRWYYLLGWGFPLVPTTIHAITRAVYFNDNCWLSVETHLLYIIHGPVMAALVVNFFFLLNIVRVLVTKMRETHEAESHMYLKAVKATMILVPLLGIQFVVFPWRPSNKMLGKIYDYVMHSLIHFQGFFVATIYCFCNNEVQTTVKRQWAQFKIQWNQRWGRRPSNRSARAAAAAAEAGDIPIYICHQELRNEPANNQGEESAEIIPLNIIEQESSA
T1 sequence (looked up) 2: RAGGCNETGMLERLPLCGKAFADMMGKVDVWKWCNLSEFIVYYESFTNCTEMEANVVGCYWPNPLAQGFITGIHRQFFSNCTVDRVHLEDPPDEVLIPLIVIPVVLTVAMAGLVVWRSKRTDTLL

B1: N^ε1-[2-[2-[2-[[(4S)-4-carboxy-4-(19-carboxynonadecanoylamino)butanoyl]amino]ethoxy]ethoxy]acetyl]-[Arg17,Pro21,Pro27,Glu35]-h-amylin (peptide)
peptide: K([AEEA-γGlu-C20 diacid])CNTATCATQRLANFLRHSSPNFGAIPSSTNVGSETY-NH2
modifications: disulfide 2-7; N-terminus assumed
SMILES: CC[C@H](C)[C@H](NC(=O)[C@H](C)NC(=O)CNC(=O)[C@H](Cc1ccccc1)NC(=O)[C@H](CC(N)=O)NC(=O)[C@@H]1CCCN1C(=O)[C@H](CO)NC(=O)[C@H](CO)NC(=O)[C@H](Cc1c[nH]cn1)NC(=O)[C@H](CCCNC(=N)N)NC(=O)[C@H](CC(C)C)NC(=O)[C@H](Cc1ccccc1)NC(=O)[C@H](CC(N)=O)NC(=O)[C@H](C)NC(=O)[C@H](CC(C)C)NC(=O)[C@H](CCCNC(=N)N)NC(=O)[C@H](CCC(N)=O)NC(=O)[C@@H](NC(=O)[C@H](C)NC(=O)[C@@H]1CSSC[C@H](NC(=O)[C@@H](N)CCCCNC(=O)COCCOCCNC(=O)CC[C@H](NC(=O)CCCCCCCCCCCCCCCCCCC(=O)O)C(=O)O)C(=O)N[C@@H](CC(N)=O)C(=O)N[C@@H]([C@@H](C)O)C(=O)N[C@@H](C)C(=O)N[C@@H]([C@@H](C)O)C(=O)N1)[C@@H](C)O)C(=O)N1CCC[C@H]1C(=O)N[C@@H](CO)C(=O)N[C@@H](CO)C(=O)N[C@H](C(=O)N[C@@H](CC(N)=O)C(=O)N[C@H](C(=O)NCC(=O)N[C@@H](CO)C(=O)N[C@@H](CCC(=O)O)C(=O)N[C@H](C(=O)N[C@@H](Cc1ccc(O)cc1)C(N)=O)[C@@H](C)O)C(C)C)[C@@H](C)O
notes: also called compound 26
B2: N^ε1-[(4S)-4-carboxy-4-(19-carboxynonadecanoylamino)butanoyl]-[Arg17,Pro21,Pro27,Glu35]-h-amylin (peptide)
peptide: K([γGlu-C20 diacid])CNTATCATQRLANFLRHSSPNFGAIPSSTNVGSETY-NH2
modifications: disulfide 2-7; N-terminus assumed
SMILES: CC[C@H](C)[C@H](NC(=O)[C@H](C)NC(=O)CNC(=O)[C@H](Cc1ccccc1)NC(=O)[C@H](CC(N)=O)NC(=O)[C@@H]1CCCN1C(=O)[C@H](CO)NC(=O)[C@H](CO)NC(=O)[C@H](Cc1c[nH]cn1)NC(=O)[C@H](CCCNC(=N)N)NC(=O)[C@H](CC(C)C)NC(=O)[C@H](Cc1ccccc1)NC(=O)[C@H](CC(N)=O)NC(=O)[C@H](C)NC(=O)[C@H](CC(C)C)NC(=O)[C@H](CCCNC(=N)N)NC(=O)[C@H](CCC(N)=O)NC(=O)[C@@H](NC(=O)[C@H](C)NC(=O)[C@@H]1CSSC[C@H](NC(=O)[C@@H](N)CCCCNC(=O)CC[C@H](NC(=O)CCCCCCCCCCCCCCCCCCC(=O)O)C(=O)O)C(=O)N[C@@H](CC(N)=O)C(=O)N[C@@H]([C@@H](C)O)C(=O)N[C@@H](C)C(=O)N[C@@H]([C@@H](C)O)C(=O)N1)[C@@H](C)O)C(=O)N1CCC[C@H]1C(=O)N[C@@H](CO)C(=O)N[C@@H](CO)C(=O)N[C@H](C(=O)N[C@@H](CC(N)=O)C(=O)N[C@H](C(=O)NCC(=O)N[C@@H](CO)C(=O)N[C@@H](CCC(=O)O)C(=O)N[C@H](C(=O)N[C@@H](Cc1ccc(O)cc1)C(N)=O)[C@@H](C)O)C(C)C)[C@@H](C)O
notes: also called compound 27
B3: N^ε1-[(4S)-4-carboxy-4-(19-carboxynonadecanoylamino)butanoyl]-[Arg17,Pro21,Pro27,Lys35]-h-amylin (peptide)
peptide: K([γGlu-C20 diacid])CNTATCATQRLANFLRHSSPNFGAIPSSTNVGSKTY-NH2
modifications: disulfide 2-7; N-terminus assumed
SMILES: CC[C@H](C)[C@H](NC(=O)[C@H](C)NC(=O)CNC(=O)[C@H](Cc1ccccc1)NC(=O)[C@H](CC(N)=O)NC(=O)[C@@H]1CCCN1C(=O)[C@H](CO)NC(=O)[C@H](CO)NC(=O)[C@H](Cc1c[nH]cn1)NC(=O)[C@H](CCCNC(=N)N)NC(=O)[C@H](CC(C)C)NC(=O)[C@H](Cc1ccccc1)NC(=O)[C@H](CC(N)=O)NC(=O)[C@H](C)NC(=O)[C@H](CC(C)C)NC(=O)[C@H](CCCNC(=N)N)NC(=O)[C@H](CCC(N)=O)NC(=O)[C@@H](NC(=O)[C@H](C)NC(=O)[C@@H]1CSSC[C@H](NC(=O)[C@@H](N)CCCCNC(=O)CC[C@H](NC(=O)CCCCCCCCCCCCCCCCCCC(=O)O)C(=O)O)C(=O)N[C@@H](CC(N)=O)C(=O)N[C@@H]([C@@H](C)O)C(=O)N[C@@H](C)C(=O)N[C@@H]([C@@H](C)O)C(=O)N1)[C@@H](C)O)C(=O)N1CCC[C@H]1C(=O)N[C@@H](CO)C(=O)N[C@@H](CO)C(=O)N[C@H](C(=O)N[C@@H](CC(N)=O)C(=O)N[C@H](C(=O)NCC(=O)N[C@@H](CO)C(=O)N[C@@H](CCCCN)C(=O)N[C@H](C(=O)N[C@@H](Cc1ccc(O)cc1)C(N)=O)[C@@H](C)O)C(C)C)[C@@H](C)O
notes: also called compound 35
B4: N^ε1-[(4S)-4-carboxy-4-[[(4S)-4-carboxy-4-(19-carboxynonadecanoylamino)butanoyl]amino]butanoyl]-[Asp14,Arg17,Pro21,Pro27,Asp35]-h-amylin (peptide)
peptide: K([γGlu-γGlu-C20 diacid])CNTATCATQRLADFLRHSSPNFGAIPSSTNVGSDTY-NH2
modifications: disulfide 2-7; N-terminus assumed
SMILES: CC[C@H](C)[C@H](NC(=O)[C@H](C)NC(=O)CNC(=O)[C@H](Cc1ccccc1)NC(=O)[C@H](CC(N)=O)NC(=O)[C@@H]1CCCN1C(=O)[C@H](CO)NC(=O)[C@H](CO)NC(=O)[C@H](Cc1c[nH]cn1)NC(=O)[C@H](CCCNC(=N)N)NC(=O)[C@H](CC(C)C)NC(=O)[C@H](Cc1ccccc1)NC(=O)[C@H](CC(=O)O)NC(=O)[C@H](C)NC(=O)[C@H](CC(C)C)NC(=O)[C@H](CCCNC(=N)N)NC(=O)[C@H](CCC(N)=O)NC(=O)[C@@H](NC(=O)[C@H](C)NC(=O)[C@@H]1CSSC[C@H](NC(=O)[C@@H](N)CCCCNC(=O)CC[C@H](NC(=O)CC[C@H](NC(=O)CCCCCCCCCCCCCCCCCCC(=O)O)C(=O)O)C(=O)O)C(=O)N[C@@H](CC(N)=O)C(=O)N[C@@H]([C@@H](C)O)C(=O)N[C@@H](C)C(=O)N[C@@H]([C@@H](C)O)C(=O)N1)[C@@H](C)O)C(=O)N1CCC[C@H]1C(=O)N[C@@H](CO)C(=O)N[C@@H](CO)C(=O)N[C@H](C(=O)N[C@@H](CC(N)=O)C(=O)N[C@H](C(=O)NCC(=O)N[C@@H](CO)C(=O)N[C@@H](CC(=O)O)C(=O)N[C@H](C(=O)N[C@@H](Cc1ccc(O)cc1)C(N)=O)[C@@H](C)O)C(C)C)[C@@H](C)O
notes: also called compound 2
B5: N^ε1-[(4S)-4-carboxy-4-[[(4S)-4-carboxy-4-(19-carboxynonadecanoylamino)butanoyl]amino]butanoyl]-[Glu14,Arg17,Pro21,Pro27,Arg34,Glu35]-h-amylin (peptide)
peptide: K([γGlu-γGlu-C20 diacid])CNTATCATQRLAEFLRHSSPNFGAIPSSTNVGRETY-NH2
modifications: disulfide 2-7; N-terminus assumed
SMILES: CC[C@H](C)[C@H](NC(=O)[C@H](C)NC(=O)CNC(=O)[C@H](Cc1ccccc1)NC(=O)[C@H](CC(N)=O)NC(=O)[C@@H]1CCCN1C(=O)[C@H](CO)NC(=O)[C@H](CO)NC(=O)[C@H](Cc1c[nH]cn1)NC(=O)[C@H](CCCNC(=N)N)NC(=O)[C@H](CC(C)C)NC(=O)[C@H](Cc1ccccc1)NC(=O)[C@H](CCC(=O)O)NC(=O)[C@H](C)NC(=O)[C@H](CC(C)C)NC(=O)[C@H](CCCNC(=N)N)NC(=O)[C@H](CCC(N)=O)NC(=O)[C@@H](NC(=O)[C@H](C)NC(=O)[C@@H]1CSSC[C@H](NC(=O)[C@@H](N)CCCCNC(=O)CC[C@H](NC(=O)CC[C@H](NC(=O)CCCCCCCCCCCCCCCCCCC(=O)O)C(=O)O)C(=O)O)C(=O)N[C@@H](CC(N)=O)C(=O)N[C@@H]([C@@H](C)O)C(=O)N[C@@H](C)C(=O)N[C@@H]([C@@H](C)O)C(=O)N1)[C@@H](C)O)C(=O)N1CCC[C@H]1C(=O)N[C@@H](CO)C(=O)N[C@@H](CO)C(=O)N[C@H](C(=O)N[C@@H](CC(N)=O)C(=O)N[C@H](C(=O)NCC(=O)N[C@@H](CCCNC(=N)N)C(=O)N[C@@H](CCC(=O)O)C(=O)N[C@H](C(=O)N[C@@H](Cc1ccc(O)cc1)C(N)=O)[C@@H](C)O)C(C)C)[C@@H](C)O

Numbered stars: 1 amine (or outer) side, 2 acyl side, 3 side chain; on linkers, the order of the positions; unused ones are H or OH. Bridge positions count the residues as written; N and C are the ends. Side chains are listed from the residue outwards. Ends that are not written are not given here. * marks the point of attachment. C20 diacid = O=C(O)CCCCCCCCCCCCCCCCCCC(=O)*; γGlu = O=C(O)[C@H](CCC(=O)[*:2])N[*:1]; AEEA = NCCOCCOCC(=O)O

The target of this experiment is T1, human amylin receptor. In words: SPA competition vs 125I-rat amylin, membranes of amylin 3(a) receptor BHK cells (Assay V). As to the method: The binding assay was performed using scintillation proximity assay (SPA) beads (RPNQ0001) from PerkinElmer and cell membranes from the Amylin 3(a)/CRE-luc cells (as described in Assay (II)) were used. Membranes were prepared in the following way; the cells were rinsed with PBS and incubated with Versene for approximately 5 min before harvesting. The cells were flushed with PBS and the cell-suspension was centrifuged for 5 min at 1000 rpm. Cells were homogenized (ultrathurrax) in a buffer containing 20 mM Na-HEPES and 10 mM EDTA (pH 7.4) and centrifuged at 20.000 rpm for 15 min. The resulting pellet was resuspended, homogenized and centrifuged (20.000 rpm, 15 min) in a buffer containing 20 mM Na-HEPES and 0.1 mM EDTA (pH 7.4, buffer 2). The resulting pellet was resuspended in buffer 2 and protein concentration was measured (BCA protein Assay, Pierce). The homogenate was kept cold during the whole procedure. The membranes were kept at −80° C. until use. The assay was performed in a 384 well Optiplate (PerkinElmer) in a total volume of 40 ul. Membranes were mixed with SPA beads. Final concentration of membranes 35 ng/μL final and SPA beads was 0.05 mg/well. Test-compounds were dissolved in DMSO and further diluted in assay buffer (50 mM Hepes, pH 7.4, 1 mM CaCl2, 5 mM MgCl₂, 0.1% OA and 0.02% Tween20). […] The final mixture was incubated with shaking at 400 rpm for 120 min at 25° C. prior to centrifugation (1500 rpm, 10 min). Samples were analyzed on TopCounter™ (Packard). The IC₅₀ was calculated using (one site binding competition analysis) GraphPad Prism5 as a measure of receptor affinity.
Usually IC50 stands for the concentration that gives 50% inhibition. Read a high IC50 as lower potency. Turning to B1, the IC50 was 0.532 nM.

For B2, the IC50 was 0.837 nM.

On to B3, for which the IC50 was 0.97 nM.

In turn, B4 yielded an IC50 of 0.411 nM.

Molecule B5 showed an IC50 of 0.957 nM.

For the origin of these results see patent US20140087995A1 (published 2014).
